Test: yeast display, Sf9 membrane polyspecificity reagent, FACS + sequencing; frameworks hold sequencing errors
Method in brief: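 A nanobody's polyreactivity label depends on the gate it was sorted from. Yeast display cells were stained with 10% biotinylated, detergent-solubilized Sf9 membrane reagent for 1 hour at 4 °C, enriched on streptavidin microbeads and sorted by FACS. The low and high (top ~1%) gates were set on anti-HA fluorescence for expression and streptavidin fluorescence for reagent binding.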

| Sequence | polyreactivity (PSR sort gate) |
| --- | --- |
| QVQLVESGGGLVQAGGSLRLSCAASGSTFTLNAMGWYRQAPGKERELVADISWSSGRTYYADSVKGRVTISRDNAKNTVYLQMNSLKPEDTAVYYCATDDFWNVKFYAYYPDFDHWGQGTQVTVSS | low polyreactivity |
| QVQLVESGGGLVQAGGSLRLSCAASGNILAWYAMGWYRQAPGKERELVADISSRGGSTYYADSVKRRFTISRDNAKYTVYLQMKSLKPEDTAVYYCAAVWYWNQDYEYWGQGTQVTVSS | low polyreactivity |
| QVQLVESGGGLVQAGGSLRLSCAASGSTFYRYMGWYRQAPGKERELVADISSSGDTYYADSVKGRFTISRDNAKNTVYLQMNSLKPEDTAVYYCAADVSVGYWWSYSMDYWGQGTQVTVSS | high polyreactivity |
| QVQLVESGGGLVQAGGSLRLSCAASGFIFWWYGMGWYRPAPGKEREFVAAITQSGSTYYADSVKGRFTISRDNAKNTVYLQMNSLKPEDTAVYYCADVVGRRLYPRYDYWGQGTQVTVSS | high polyreactivity |
| QVQLVESGGGLVQAGGSLRLSCAASGSIFVSYAMGWYRQAPGKERELVAAITRSGGSTYYADSVKGRFTISRDNAKNTLYLQMNSLKPEDTAVYYCAARSYLGAYRRYYWGQGTQVTVSS | high polyreactivity |
| QVQLVESGGGLVQAGGSLRLSCAASGFIFRRNAMGWYRQAPGKEREFVAAITWSGGSTYYADSVKGRFTISRDNAKDTVYLQMNSLKPEDTAVYYCAATYSQYWYTKYLNSYPGYDYWGQGTQVTVSS | low polyreactivity |
| QVQLVESGGGLVKAGCSLRLTCAASARTFRWYAMGWYRQAPGKERELVATISWSSGRTRYADSVKGRFTISRDNANNTVYLQMNSLKPEETAVYYCNADQWDKSYDYWGQGSQVTVSS | high polyreactivity |
| QVQLVESGGGLVQAGGSLRLSCAASGSIFPYYAMGWYRQAPGKERELVAAISSGDITDYADSVKGRFTISRDNAKNTVYLQMNSLKPEDTAVYYCAAVYDLGYYGPIWAIVLDDYWGQGTQVTVSS | low polyreactivity |
| QVHLVESGGGLVQAGGSLRLSCAASGRTFYRNAMGWYRQAPGKERELVAAIRTRTGSTYYADSVKGRFTISRDNAKNTVYLQMNSLKPEDTAGYYCAALAWYPYYASWPVESDYWGQGTQVTVSS | high polyreactivity |
| QVQLVESGGGLVQAGGSLRLSCAASGSTRRYAMGWYRQAPGKERELVAAISSRGGSTYYADSVKGRFTISRDNAKNTVYLQMNSLKPEDTAVYYCAARTTRGPTFGYWGQGTQVTVSS | high polyreactivity |
| QVQLVETGGGIVQAGGRLRLTCAASGSSFYSYAMGWYRQAPGKEMELVAAITTSGGNTLYADSVKGRFTISRDNAKNTVDLQMNSLKPEDTADYYCAADVFRGGDYEYDYWGQGTQVTVSS | low polyreactivity |
| QVQLVESGGGLVQAGGSLRLSCAASGRTFGRNAMGWYRQAPGKERELVAAISSSGGRTYYADSVKGRFTISRDNAKNTVYLQMNSLKPEDTAVYYCNALTYYRDYWGQGTQVTVSS | high polyreactivity |
| QVQLVESGGGLVQAGGSLRLSCAASGRTFGDYAMGWYRQEPGKERELVAGITGRDSTNYADSVKGRFTISRDNAKNTVYLQMNSLIREDTAVYYCNADFWYTDISYGLATYDYWGQGTQVTVSS | high polyreactivity |
| QVQLVESGGGLVQAGGSLRLSCAASGSISGWYAMGWYRQAPGKERELVADISSIAGSTYYADCVKGRFTISRDNAKNTDSLQKNSLKPEDTAVYYGAADRGVDYEYDYWGQGTQVTVSS | low polyreactivity |
| QVQLVESGGGLVQAGGSLRLSCAASGRTFQNYAMGWYRQAPGKERELVADITSGGSTYADSVKGRFTMSRDNAKNTVYLQMNSLKPEDTAVYYCNADRTYPEPAEYYYWGQGTQVTVSS | low polyreactivity |
| QVQLVESGGGLVQAAGSLRLSCAASGYIFQYYAMGWYRQAPGKERELVAAITGGGSTKYADSVKGRFTISRDNAKNTVYLQMNSLKPEDTAVYYCAASLWYRISKYDYWGQGTQVTVSS | high polyreactivity |
| QEQLQESGGGQVQAGGSLLLSCAASGNIIRYYYMGWYRQAPGKERELVAAITYGTSTNYADSVKGRFTISRDNAKNTVYLQMNSLKPEDTAVYYCAVDVNYGDPLDNWGQGTQVTVSS | high polyreactivity |
| QVQLVESGGGLVQAGGSLRLSCAASGRIFKYYAMGWYRPAPGNETELVAAIRWSDSTYYADSVKGRFTSSRDNAKNTVYLQMNSLQPEDTAVYYCAALYRHPQEYRVGDYDYWGQGTQVTVSS | low polyreactivity |
| QVQLEESGGGLVQAGGSLRLICAASGIIFYVNAMGWYRQAPGKERELVAAITFGGDSTYYADSVKGRFTISRDNAKNTVYLQMNSLKPEDTAVYYCATDGDPAYPEMEYWGQGTQVTVSS | low polyreactivity |
| QVQLVESGGGIVQAGGSLRLSCAASGSIFSFNAMGWYRQAPGKERELVAAISRGGSTYYADSVKGRFTISRDNAKNTVYLQMNSLKPEDTAVYYCAADIYGHSYSYYLGEYWGQGTQVTVSS | high polyreactivity |
| QVQLVESGGGLVQAGGSLRVSCAASGLIFNTYAMGWYRQAPGKERELVAAITVGGGTNYADSVKGLFRISRDNAKNTVYLQMNSLNPADTAVYYCAARLASWPLTYDFQWYEYWGQGTQVTVSS | low polyreactivity |
| QVQLVESGAGLVQAGGSLRLSWAASGSNYDIYAMGWYRQAPGKERELVAAITGSGGSTNYADSVKGRFTISRDNAKNTVYVQLNSLKPEDTAVYYCAAAGFDYPSDTYGYWGQGTQVTVSS | low polyreactivity |

| Sequence | polyreactivity (PSR sort gate) |
| --- | --- |
| QVQLVESGGGLVQAGGSLRLSCAASGSIFLWYTMGWYRQAPGKERELVAAISSSGGSTYYADSVKGRFTISRDNAKNTVYLQTNSLKPEDNAVYYCAAAKLFYYGRKYGKYDYWGQGTQVTVSS | high polyreactivity |
| QVQLVESGGGLVQAGGSLRFSCAASGIIFYFYTMGWYRQAPGKERELVAAISSSGGRTFYADSVKGRFTISRDHAKNTVYLQMNSLKPEDTAVYYCAAGYPYGGDYWGQGTQVTVSS | high polyreactivity |
| QVQLVESGGGLVQAGGSLRLSCAASGSTFRHYAMGWYRQAPGKERELVAAISIRGGSTNYADSVKGRFTISRDNAKNTVYLQMNSLKPEDTAVYYCNACRLRYIFKSYDYWGQGTQVTVSS | high polyreactivity |
| QVQLVESGGGLVQAGGSLRLSCAASGSIFQIYAMGWYRPAPGKERELVAAINSGGITKYADSVKGRFTISRDNAKNTVYLQMNSLKPEDTAVYYCAKRYGWPYGRFDYWGQGTQVTVSS | low polyreactivity |
| QVQLEESGGGLVQAGGSLRLSCAASGRTFVYYAMGWYRTATGKQRELVAAITSSGSRTYYADSVKGRFTFSRDNAKNTVYLQMNSLKPEDTAVYYCAADYVAHGDYRVLYDYWGQGTQVTVSS | low polyreactivity |
| QVQLVESGGGLVQAGGSLRLSCAASGRTFRWYTMGWYRQAPGKEREFVAAITWSGSSTNYADSVKGRFTISRDNAKNTVYLQMNSLKPEDTAVYYCAAENRRRRDDYWGQGTQVTVSS | high polyreactivity |
| QVQLVESGGGLVQAGGSLRLSCAASGRNYVYNAMGRYRQAPGKETELVAAITSSGGSTYYADSVKGRFTISRDNAKNSVDLQMNSLKPEDTAVYYCAADVQPDTRSTPEMDYWGQGTQVTVSS | low polyreactivity |
| QVQLVESGGGLVQAGGSLRLSCAASGFTFRRYAMGWYRQAPGKERELVAAISRRGVTTYYADSVKGRFTISRDNAKNTVYLQMISLKPEDTAVYYCAADHNPSIGDDSWGQGTQVTVSS | high polyreactivity |
| QVQLVESGGGLVQAGGSLRLSCAASGRTLYIYAMGWYRQAPGKERELVAAITRRGDSTYYADSVKGRFTISRDNAKNTVYLQMNSLKPEDTAVYYCAADFQDTSSQYDPAYEYWGQGTQVTVSS | low polyreactivity |
| QVQLVESGGGLVQAGGSLRLSCAASGSIFGLNGMGWYIQAPGKERELVASISASGGSTYYADSVKGRFTISRDNAKNTVYLQMNSLKPEDTAVYYCAARVVYGAGLSSSGPKQYTRRFYYWGQGTQVTVSS | high polyreactivity |
| QVQLVESGGGLVPAGGSLRLSCAASGSIFPVYAMGWYRQAPGKERELVASISTGGSTYYADSVKGRFTISRDNAKNTVYLQMNSLKPEDNAVYYCDATGWAYGYGYWGQGTQVTVSS | low polyreactivity |
| QDQLVESGGGLVQAGGSLRLSCADYGINFYSYAMGWYRQAPGKEREFVAAISTGSSTNYADSVKGRFTISRDNAKNNVYLQMISLKPEDTAVYYCAKSTAVKPYAYRESGFIYDYWGQGTQLTVSS | low polyreactivity |
| QVQLVESGGGLVQAGGSLRLSCAASGLIFVGYAMGWYRQAPGTERELVAAITSGGSTNYADSVKGRFTISRDNAKNTVYLQMNSLKPEDTAVYYCAASDAIPLRYDYWGQGTQVTVSS | low polyreactivity |
| QVQLVESGGGLVQAGGSLSLSCAASGRIRRYTMGWYRQAPGKERELVASISGNGGSTYYADSVTGRFTISRDNAKNTVYLQMNSLKPEDTAVYDCARTKQEYTFGQFYLGDYWGQGTQVTVSS | low polyreactivity |
| QVQIVESGGGLVQAGGSLRLSCTASGRIFYRYAMGWYRQAPGKERELVAAIRYSGGRTYYADSVKGRFTISRDNAKNTVYLQMNSLKQEDTAVYYCAADGQWYYAPFRGGVYENDYWGQGTQVTVSS | low polyreactivity |
| QDQLVESGGGLVQAGGSLRLSCAASGSIFKYNMGWYRQAPGKERELVAAISRGGSTYYADSVKGRFTISRDNAKNTVYLQMTRLKPEDTAVYYCNAATSRRFSGMNYCGQGTQVTVSS | high polyreactivity |
| QVQLVESGGGLVQAGGSLRLSCSASGSIFPAYAMGWYRQAPGKERELVASITGSGGSTYYADSVKGRFTISRDNAKNTVYLQMNSLKPEDTAVYYCNARYYVYSATVDRYYHFYYCGQGTQVTVSS | high polyreactivity |
| QVQLEESGGGLVQAGGSLRLSCPASGLTFDCYAMGWYRQAPGKERELVAAITSVGSTYYADSVKGRFTISRDNAKNTVYLQMTSLKPEDTAVYYCAVEGVIWCFWPYEYWGQGTQVTVSS | high polyreactivity |
| QVQLVESGGGLVQAGGSLRLSCAASGSISQKYVMGWYRKAPGKERELVAAIRSTGNTYYADSVKGRFTISRDNAKNTVYLQMNSLKPEDTAVYYCAARLYVLRWYPYDYWGQGTQVTVSS | low polyreactivity |
| QVQLVESGAGIVQAGGSLRLTCAASGSTFVIYDMGWSRQAPGKERELVAAISYSGGSTYYADSVKGRFTISRDNAKNTVYLQMNSLKPEDTAVYYCAAEVPYYYPGFYSYYDDSDYWGQGTQVTVSS | low polyreactivity |
| QVQLVESGGGLDQAGGSLRLSCADSGYILDRNAMGWYRHAPGKETALVAVISWGGTRTYYADSVKGRFTISRDNAKNTVYLQMISLKPEDTAVYYCARYPYYYGYAGRYDYWGQGTQVTVSS | high polyreactivity |
